Laboratory results reported in paper PMC2807407 (Molecular cell, 2009).
Where a chain is given by its changes, count along the chain named.

T1: Dsk2-UBL D64K (Saccharomyces cerevisiae, UniProt P48510 1-75, D64K)
T1 sequence: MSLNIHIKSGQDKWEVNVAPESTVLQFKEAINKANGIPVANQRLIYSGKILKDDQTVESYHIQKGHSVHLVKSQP

T2: Dsk2 (full length) (Saccharomyces cerevisiae, UniProt P48510 1-373)
T2 sequence (looked up): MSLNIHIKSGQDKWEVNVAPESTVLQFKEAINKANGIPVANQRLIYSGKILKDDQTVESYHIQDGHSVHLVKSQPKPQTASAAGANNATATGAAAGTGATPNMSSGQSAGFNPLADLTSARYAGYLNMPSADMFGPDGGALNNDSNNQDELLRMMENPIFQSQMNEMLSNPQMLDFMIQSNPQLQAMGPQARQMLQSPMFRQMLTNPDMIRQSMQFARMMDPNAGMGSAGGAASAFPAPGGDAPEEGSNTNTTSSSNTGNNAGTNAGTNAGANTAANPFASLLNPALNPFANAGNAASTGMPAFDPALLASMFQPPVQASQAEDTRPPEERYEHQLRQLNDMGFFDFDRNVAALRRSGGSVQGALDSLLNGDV

B1: Dsk2-UBL (domain or fragment, Saccharomyces cerevisiae)
chain: T1 sequence with K64D
B2: Rpn10 C-terminal construct Rpn10_(204-268) (domain or fragment, Saccharomyces cerevisiae, UniProt P38886 204-268, looked up)
chain: GSGGDSDANGTFMDFGVDPSMDPELAMALRLSMEEEQQRQERLRQQQQQQDQPEQSEYPEQHQDK

Columns and labels:
[1] = biological target: B2; test: NMR titration
Dsk2-UBL [2] = biological target: B1; test: NMR titration
Dsk2-UBL D64K [3] = biological target: T1, Dsk2-UBL D64K; test: NMR titration
Dsk2-UBL [4] = biological target: B1; test: SPR
Dsk2 (full length) = biological target: T2, Dsk2 (full length); test: SPR
Dsk2-UBL D64K [5] = biological target: T1, Dsk2-UBL D64K; test: SPR

## B1
[1]
  stoichiometry N: 1

## B2
Dsk2-UBL [2]
  Kd: 3.5 ± 0.7 µM
Dsk2-UBL D64K [3]
  Kd: 39 ± 17 µM
Dsk2-UBL [4]
  Kd: 9 µM
Dsk2 (full length)
  Kd: 12.5 µM
Dsk2-UBL D64K [5]
  Kd: 31.8 µM
